In patent EP4342988A1 (Eberhard Karls Universität Tübingen, Medizinische Fakultät, dated 2024):

What was measured:
[1] = molecular target: 149 proteins which strongly interact with THAP1; assay: TAP-MS, anti-Flag pull-down of tagged THAP1 against empty vector, LC-MS/MS peak area ratios
[2] = molecular target: T1, CTCF (CCCTC-binding factor / Transcriptional repressor CTCF) (UniProt P49711 1-727); assay: anti-Flag pull-down of tagged THAP1 from HEK-293 nuclear extract (TAP), Western blot
T1 sequence (looked up): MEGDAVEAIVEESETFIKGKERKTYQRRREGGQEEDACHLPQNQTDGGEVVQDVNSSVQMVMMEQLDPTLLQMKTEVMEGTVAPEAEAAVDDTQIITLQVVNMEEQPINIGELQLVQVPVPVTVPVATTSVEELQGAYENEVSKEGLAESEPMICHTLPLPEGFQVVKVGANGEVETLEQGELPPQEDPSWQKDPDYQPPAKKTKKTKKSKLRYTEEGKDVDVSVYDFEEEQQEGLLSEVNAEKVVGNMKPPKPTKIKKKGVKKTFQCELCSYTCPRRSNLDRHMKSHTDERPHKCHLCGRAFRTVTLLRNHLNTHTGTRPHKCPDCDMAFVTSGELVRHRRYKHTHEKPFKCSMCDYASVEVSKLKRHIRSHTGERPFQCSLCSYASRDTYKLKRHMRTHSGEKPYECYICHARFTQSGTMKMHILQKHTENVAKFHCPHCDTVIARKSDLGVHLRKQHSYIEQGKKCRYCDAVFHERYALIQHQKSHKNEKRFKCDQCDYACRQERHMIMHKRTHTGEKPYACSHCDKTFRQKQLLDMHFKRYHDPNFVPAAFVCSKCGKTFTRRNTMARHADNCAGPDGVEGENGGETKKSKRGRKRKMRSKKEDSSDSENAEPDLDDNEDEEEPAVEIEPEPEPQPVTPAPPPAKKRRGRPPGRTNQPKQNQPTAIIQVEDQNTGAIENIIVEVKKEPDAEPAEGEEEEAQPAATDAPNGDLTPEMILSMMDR

log2 (TAP-MS ratio) [1]: 15 log2
binding result [2]: binds
B1: Strep/FLAG tagged THAP1 protein (other, human, UniProt Q9NVV9 1-213, looked up)
chain: MVQSCSAYGCKNRYDKDKPVSFHKFPLTRPSLCKEWEAAVRRKNFKPTKYSSICSEHFTPDCFKRECNNKLLKENAVPTIFLCTEPHDKKEDLLEPQEQLPPPPLPPPVSQVDAAIGLLMPPLQTPVNLSVFCDHNYTVEDTMHQRKRIHQLEQQVEKLRKKLKTAQQRCRRQERQLEKLKEVVHFQKEKDDVSERGYVILPNDYFEIVEVPA
notes: Bait of the TAP-MS pull-down from nuclear extract of HEK-293 cells on anti-Flag M2 agarose, with benzonase added; also called wild-type THAP1; hTHAP1; not shown: Strep/FLAG tag
